Test [1] deals with N-terminal domain of the ectodomain of Hepatitis C virus envelope glycoprotein E1, N43Q (Hepatitis C virus). Kind of test: SEC; size-exclusion chromatography; data not shown.
Test [2] shares this target. As to the kind of experiment: reducing and nonreducing SDS-PAGE; 15% reducing (R) and nonreducing (NR) SDS-PAGE gels of purified deglycosylated HCV nE1; covalent dimer.

As to “N-terminal domain of the ectodomain of Hepatitis C virus envelope glycoprotein E1, N43Q (domain or fragment)”, the stoichiometry N in test [1] and in test [2] was 2 in each case.

For the origin of these results see article PMC4118829.
